According to patent publication US6534035B1, “Methods of inhibiting clot formation” (President and Fellows of Harvard College, priority 1998, dated 2003):
“And” between values parts separate entries of the source, which are not always exact repeats. Identical values can stand only once.

How the values were obtained:
FXIIIa [1] = molecular target: T1, FXIIIa (Homo sapiens, UniProt P00488); experiment: Crosslinking of α2AP1-24 and variant peptides to fibrin clots; format: biochemical; conditions: 0.5 mM of each peptide clotted with human fibrinogen; compared to wild type α2AP1-24
T1 construct: purchased American Diagnostica
T1 sequence (P00488 39-732 limits assumed): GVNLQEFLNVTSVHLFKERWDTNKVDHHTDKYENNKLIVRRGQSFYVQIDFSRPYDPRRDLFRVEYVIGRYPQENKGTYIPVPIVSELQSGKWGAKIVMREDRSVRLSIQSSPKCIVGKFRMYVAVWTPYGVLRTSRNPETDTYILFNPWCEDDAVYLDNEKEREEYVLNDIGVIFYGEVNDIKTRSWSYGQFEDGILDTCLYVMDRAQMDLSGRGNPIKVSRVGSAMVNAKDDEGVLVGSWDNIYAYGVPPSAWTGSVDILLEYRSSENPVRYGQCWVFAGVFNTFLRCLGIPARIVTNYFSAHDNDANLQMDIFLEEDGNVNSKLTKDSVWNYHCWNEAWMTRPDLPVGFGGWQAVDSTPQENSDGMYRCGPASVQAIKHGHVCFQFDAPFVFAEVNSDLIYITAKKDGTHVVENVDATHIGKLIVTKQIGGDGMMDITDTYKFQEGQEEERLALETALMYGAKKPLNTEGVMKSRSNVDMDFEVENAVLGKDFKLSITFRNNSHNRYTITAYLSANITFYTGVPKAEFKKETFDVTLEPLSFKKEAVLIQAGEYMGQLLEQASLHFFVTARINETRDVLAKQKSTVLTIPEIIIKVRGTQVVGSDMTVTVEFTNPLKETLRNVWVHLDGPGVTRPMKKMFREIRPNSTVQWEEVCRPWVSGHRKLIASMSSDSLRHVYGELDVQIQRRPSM
Protocol: A 0.5 mM concentration of each peptide was clotted with human fibrinogen. After electrophoresis of the solubilized, reduced clots on 7.5% SDS-PAGE gels and transfer to PVDF membranes, the extent of crosslinking of each peptide was determined by incubating the membranes with a polyclonal antibody directed against the amino-terminus of α2AP, followed by incubation in ^125I-protein A, and exposure in a phosphorimager. Each bar reflects phosphorimage quantification of the fibrin crosslinking α2AP1-24 and the variant peptides. The mean±SD pixel volume of the quantified blots are shown.
(§1) Experiments were performed to determine how long FXIIIa in clots could crosslink various substrates such as human ^125I -α2AP, α2AP13-24 (SEQ ID NO:2), and 5-(biotinamido)pentylamine, into fibrin. In a typical experiment, clots were prepared (50 μl final volume) in duplicate by combining fibrinogen (2 mg/ml final), CaCl2 (2 mM final), buffer (Tris-buffered saline pH 7.4) and thrombin (1 U/ml) and incubating at 37° C. Synchronous with the addition of thrombin, or up to 240 minutes afterwards, the FXIIIa substrates 5-(biotinamido)pentylamine (0.5 mM final), ^125I -α2AP (70 μg/ml final), and α2AP13-24 (0 to 1 mM final) were mixed and added to the clot. In one set of control samples, FXIIIa was inhibited with iodoacetamide (10 mg/ml) prior to the addition of substrate; to another set, no substrate was added. After 2 hours of incubation at 37° C., iodoacetamide (10 mg/ml) was added to stop the reaction. The tubes were then centrifuged at 14,000 rpm for 2 minutes, washed and compressed in 1 ml saline to remove unbound proteins, and centrifuged again at 14,000 rpm for 2 minutes. After removal of the supernatant, the clots were solubilized in 100 μL of 9M urea, pH 9.0 at 37° C. for 60 minutes. Then 100 μl of SDS reducing sample buffer was added and the clots were placed at 85° C. for 30 minutes until fully solubilized. The samples were examined by SDS-PAGE. Crosslinked ^125I-α2AP was detected and quantitated by phosphorimaging. Samples containing crosslinked α2AP13-24 and pentylamine substrates were electroblotted to PVDF membranes and detected by ^125I-streptavidin followed by phosphorimaging or by streptavidin-peroxidase followed by the developing agents 5-bromo-4-chloro-3-indolyl phosphate-nitro blue tetrazolium using methods known in the art. In experiments examining the effect of specific amino acid residues on the crosslinking of the α2AP13-24 peptide (SEQ ID NO:2) to fibrin, crosslinking was detected by immunoblotting with an anti-peptide antibody directed against this epitope followed by ^125I-protein A and phosphorimaging. In some experiments, clots were formed by mixing 25 μl pooled human fresh frozen plasma with 25 μl 30 mM CaCl2 instead of using human fibrinogen.
Although FXIIIa can crosslink a number of lysine analogs to glutamine sites in macromolecules such as fibrin, its specificity for crosslinking glutamine-containing substrates (acyl donors) such as α2AP to fibrin has not been defined. To examine specificity, a wild-type α2AP fragment spanning residues 1-24 (MEPLGWQLTSGPNQEQVSPLTLLK; SEQ ID NO:16) and a panel of α2AP variant peptides (corresponding to residues 1-24 with the exception that one residue is altered from the wild type sequence; SEQ ID NO:11, 12, 13, 14, 15) was created with mutations of residues that represented other potential crosslinking sites or residues that are conserved among different α2APS from different species. […]

FXIIIa [2] = molecular target: T1, FXIIIa; experiment: Variant peptides as inhibitors of the crosslinking of α2AP13-24 into fibrin; format: biochemical; conditions: peptides used as inhibitors
Protocol: (§2) Experiments were performed to determine how long FXIIIa in clots could crosslink various substrates such as human ^125I -α2AP, α2AP13-24 (SEQ ID NO:2), and 5-(biotinamido)pentylamine, into fibrin. In a typical experiment, clots were prepared (50 μl final volume) in duplicate by combining fibrinogen (2 mg/ml final), CaCl2 (2 mM final), buffer (Tris-buffered saline pH 7.4) and thrombin (1 U/ml) and incubating at 37° C. Synchronous with the addition of thrombin, or up to 240 minutes afterwards, the FXIIIa substrates 5-(biotinamido)pentylamine (0.5 mM final), ^125I -α2AP (70 μg/ml final), and α2AP13-24 (0 to 1 mM final) were mixed and added to the clot. […] Crosslinked ^125I-α2AP was detected and quantitated by phosphorimaging. Samples containing crosslinked α2AP13-24 and pentylamine substrates were electroblotted to PVDF membranes and detected by ^125I-streptavidin followed by phosphorimaging or by streptavidin-peroxidase followed by the developing agents 5-bromo-4-chloro-3-indolyl phosphate-nitro blue tetrazolium using methods known in the art. In experiments examining the effect of specific amino acid residues on the crosslinking of the α2AP13-24 peptide (SEQ ID NO:2) to fibrin, crosslinking was detected by immunoblotting with an anti-peptide antibody directed against this epitope followed by ^125I-protein A and phosphorimaging. […]

FXIIIa [3] = molecular target: T1, FXIIIa; experiment: FXIIIa catalytic half-life: crosslinking of substrates into fibrin clots of various ages; format: biochemical
Protocol: as §1, with “In some experiments, clots were formed by mixing 25 μl pooled human fresh frozen plasma with 25 μl 30 mM CaCl2 instead of using human fibrinogen.” left out

pulmonary emboli = experiment: Lysis of radiolabeled pulmonary emboli in ferrets; format: in vivo, ferret
Text: Pulmonary embolisms were induced in ferrets using standard methods, e.g., that described in Butte et al., 1997, Circulation. 95:1886-1891). Male ferrets (weighing approximately 1 kg) were anesthetized with ketamine and acepromazine. After full anesthesia had been obtained, the jugular vein and carotid artery were exposed by an anterior midline incision and cannulated with 20G catheters. Pooled, citrated human plasma was mixed with ^125I-fibrinogen to achieve a specific activity of approximately 1,000,000 cpm/ml. Individual clots were formed by mixing ^125I-fibrinogen-labeled plasma (45 μl) with 2.5 μl of bovine thrombin (100 units/ml) and 2.5 μl of calcium chloride (0.4 M). […] The radioactive content of the clots was measured in a gamma counter immediately before injection. […] Successful embolization was evinced by the accumulation of radioactivity in the thorax.
All animals received weight-adjusted heparin at 100 units/kg (bolus), a dose sufficient to keep the activated partial thromboplastin time (aPTT) above 150 seconds throughout the procedure. […] The percentage of clot lysis was determined for each ferret by dividing the total residual radioactivity in the thorax by that in the initial thrombi. […]

fibrinogen = experiment: Residual fibrinogen level by sodium sulfite method; format: in vivo, ferret; conditions: ferrets, before and after treatment
Protocol: FIG. 2 is a bar graph showing the effects of factor XIIIa activity and TPA on residual fibrinogen levels. Fibrinogen levels were measured in 25 ferrets by sodium sulfite precipitation and expressed as a percentage of the fibrinogen level prior to the experiments (“before study” level was defined as 100%). The percent residual fibrinogen level (mean±SD) is shown for each group of 5 ferrets at the end of the experiment. The following conditions were evaluated: Control, normal factor XIIIa activity, no TPA; F13-I, factor XIIIa inhibited, no TPA; TPA, TPA with normal factor XIIIa activity; TPA+F13-I, TPA with inhibited factor XIIIa activity; TPA+α2AP-I, TPA with inhibited α2 antiplasmin-fibrin crosslinking.
Blood samples were collected on K3EDTA (0.15% solution, final concentration) with aprotinin (50 kallikrein units/ml). Platelet-poor plasma was obtained by centrifugation of whole blood and assayed for fibrinogen by a standard sodium sulfite method such as that described by Rampling et al. 1976, Clin Chim Acta. 67:43-52.

[4] = Activated partial thromboplastin time in heparinized ferrets; format: in vivo, ferret; conditions: heparin bolus 100 units/kg, throughout the experiment
Protocol: All animals received weight-adjusted heparin at 100 units/kg (bolus), a dose sufficient to keep the activated partial thromboplastin time (aPTT) above 150 seconds throughout the procedure. TPA was given as a continuous infusion over 2 hours (1 mg/kg in 5 ml of normal saline). […] The thorax was dissected and all intrathoracic structures were removed for gamma counting to detect residual thrombi. The percentage of clot lysis was determined for each ferret by dividing the total residual radioactivity in the thorax by that in the initial thrombi. A total of 28 animals was studied; three were excluded because of anesthetic-related death, improper TPA infusion, and failed embolism.

FXIIIa [5] = molecular target: T1, FXIIIa; experiment: Dose-dependent crosslinking of α2AP13-24 into fibrin clots; format: biochemical; conditions: purified human fibrinogen
Protocol: as §2

In the case of “V17N: α2AP1-24 variant peptide containing mutation V17N (MEPLGWQLTSGPNQEQNSPLTLLK; listed as Homo sapiens)”, the “crosslinking of peptide to fibrin” value (FXIIIa [1]) is reported as “not efficiently crosslinked to fibrin” and the “competition for crosslinking of α2AP13-24 into fibrin” value (FXIIIa [2]) is reported as “all peptides but Q14A and V17N competed for crosslinking”.

With `O[C@H](CS)[C@H](O)CS` (racemic) [DTT, dithiothreitol] the “effect of reducing agent on crosslinking in old clots” value (FXIIIa [3]; added to reaction mixtures, 2 or 4 hour old clots) was “restored the crosslinking of pentylamine or α2AP13-24 to fibrin clots”.

For “Q14A: α2AP1-24 variant peptide containing mutation Q14A (MEPLGWQLTSGPNAEQVSPLTLLK; listed as Homo sapiens)”, the “crosslinking of peptide to fibrin” value (FXIIIa [1]) was “not efficiently crosslinked to fibrin” and the “competition for crosslinking of α2AP13-24 into fibrin” value (FXIIIa [2]) was “all peptides but Q14A and V17N competed for crosslinking”.

In the case of “MEPLGWQLTSGPNQEQVSPLTNLK (listed as Homo sapiens) [L22N, α2AP1-24 variant peptide]”, the “crosslinking of peptide to fibrin” value (FXIIIa [1]) is reported as “crosslinked into fibrin at rates comparable to that of the wild type”.

With `NCCCCCNC(=O)CCCC[C@@H]1SC[C@@H]2NC(=O)N[C@@H]21` [pentylamine-biotin, 5-(biotinamido)pentylamine] the “residual FXIIIa crosslinking of substrate” value (FXIIIa [3]; substrate added to 2 or 4 hour old clots) was “little residual FXIIIa crosslinking”.

In the case of tissue plasminogen activator [TPA], the “lysis of pulmonary emboli compared with other group” value (pulmonary emboli; FIGS. 1A and 1B group comparisons) is reported as “significantly increased lysis”, the “lysis of pulmonary emboli (mean±SD)” value (pulmonary emboli; TPA 1 mg/kg infused over 2 hours, heparin 100 units/kg, 4 hours after embolization) is reported as 32.3±7.7% and 32.2±7.7% and the “residual fibrinogen level at end of study, percentage of initial value” (fibrinogen) is reported as “nonspecific degradation of fibrinogen did not occur”.

For “MEPLGWQLTSGPNQEAVSPLTLLK (listed as Homo sapiens) [Q16A, α2AP1-24 variant peptide]”, the “crosslinking of peptide to fibrin” value (FXIIIa [1]) was “crosslinked into fibrin at rates comparable to that of the wild type”.

In the case of heparin, the “activated partial thromboplastin time (aPTT)” value [4] is reported as “above 150 seconds”.

In the case of “MEPLGWQLTS GPNQAQVSPL TLLK (MEPLGWQLTSGPNQAQVSPLTLLK; listed as Homo sapiens) [E15A, α2AP1-24 variant peptide]”, the “crosslinking of peptide to fibrin” value (FXIIIa [1]) is reported as “crosslinked into fibrin at rates comparable to that of the wild type”.

With hirudin [reference compound] the “effect on α2AP13-24 peptide-fibrin crosslinking” value (FXIIIa [5]) was “blocked α2AP13-24 peptide-fibrin crosslinking”.
